± gives the standard deviation of the averaged measurements.
Tested on: Saccharomyces cerevisiae
Assay: protein stability index of tFT-peptide fusion (C-terminal peptide) (PSI (0-1 scale)); higher = more stable (slower turnover)
Conditions: genetic background: wild type; temperature: 30 C
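Also: PSI is a weighted mean of sequencing reads over stability bins, variants kept only with over 10 reads, mCherry proximal and sfGFP distal, peptide attached via GGGS linker.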

| Sequence | protein stability index |
| --- | --- |
| PSPSPPPLRSPL | 0.623 ± 0.016 |
| PSQPLPPSRHRP | 0.616 ± 0.037 |
| PSRPPALPPPAT | 0.721 ± 0.014 |
| PSRRPAVLPPLI | 0.6719 ± 0.0015 |
| PSRSCSAPLHPN | 0.78 ± 0.056 |
| PSRTTPARPPLT | 0.662 ± 0.061 |
| PSSEGHMEDTAA | 0.684 ± 0.018 |
| PSSPPPPSATPP | 0.701 ± 0.091 |
| PSSTLRLSPSSL | 0.728 ± 0.023 |
| PSSVPSTPTPPP | 0.657 ± 0.076 |
| PSTAPHLSPPPP | 0.731 ± 0.022 |
| PSTRPMLRSQQK | 0.66 ± 0.013 |
| PSVPPLQPPHSV | 0.697 ± 0.031 |
| PSVVPSLSPLFL | 0.796 ± 0.062 |
| PSVYAASPPLPP | 0.68 ± 0.03 |
| PSYSFQYRLIQD | 0.712 ± 0.038 |
| PTDFTPREAIGI | 0.68 ± 0.087 |
| PTGYPGPRMMVW | 0.771 ± 0.3 |
| PTHALLGCTCAN | 0.681 ± 0.024 |
| PTLRAPLRYGYL | 0.675 ± 0.022 |
| PTPLSRPPTNAA | 0.634 ± 0.042 |
| PTPPPGLCTPRH | 0.702 ± 0.04 |
| PTPPSARAPPTT | 0.686 ± 0.032 |
| PTQVSGIVPAPR | 0.7732 ± 0.0051 |
| PTRIPRAPGPAQ | 0.694 ± 0.025 |
| PTRPPNEPTVHP | 0.659 ± 0.066 |

| Sequence | protein stability index |
| --- | --- |
| PTRPSRPPRPPP | 0.598 ± 0.026 |
| PTRRPDGQLHPS | 0.6707 ± 0.0027 |
| PTRTAYHRQIPT | 0.773 ± 0.043 |
| PTRTSHLCLIPP | 0.67 ± 0.075 |
| PTSDSPSLALPC | 0.71 ± 0.023 |
| PTSPPPPPASPS | 0.836 ± 0.18 |
| PTTAPPIPLPSP | 0.72 ± 0.035 |
| PTTLCLSDRPQP | 0.721 ± 0.0081 |
| PTTNHLSNRHNI | 0.685 ± 0.085 |
| PTTRSAPPPCIA | 0.676 ± 0.03 |
| PTTTLYNPSPPN | 0.742 ± 0.043 |
| PVEGSTPPPGTT | 0.614 ± 0.032 |
| PVIGLSMEKARG | 0.739 ± 0.1 |
| PVLPFPSPPAAS | 0.682 ± 0.078 |
| PVLPPCLLPTPV | 0.509 ± 0.093 |
| PVLPRPNTQSRS | 0.694 ± 0.027 |
| PVLSRLHSEVFL | 0.73 ± 0.081 |
| PVPSPFMHRAAP | 0.702 ± 0.015 |
| PVPSRAQTRSRA | 0.65 ± 0.073 |
| PVPVLGPESSVH | 0.67 ± 0.023 |
| PVQNVGAEVRPA | 0.683 ± 0.0094 |
| PVSCTLTLPPPH | 0.65 ± 0.0036 |
| PVSSPPRPAPSP | 0.677 ± 0.025 |
| PVVDVRFSFRCL | 0.644 ± 0.038 |
| PVWLLHIRPPIP | 0.681 ± 0.058 |
| PVYAYYVPCAPR | 0.645 ± 0.091 |

| Sequence | protein stability index |
| --- | --- |
| PWANRVCFLHMK | 0.678 ± 0.037 |
| PWEVEAKNGRDR | 0.717 ± 0.032 |
| PWGGVLGWGLVG | 0.608 ± 0.016 |
| PWGSPLMACRSC | 0.694 ± 0.02 |
| PWTAGQGWATIP | 0.688 ± 0.04 |
| PWTAHVWSMVLG | 0.552 ± 0.033 |
| PWWGCTLGGGWG | 0.737 ± 0.063 |
| PYEPTIALPLLL | 0.683 ± 0.058 |
| PYFFSPIFTRTP | 0.712 ± 0.027 |
| PYFHRRMSLESF | 0.703 ± 0.013 |
| PYGFNPSANGSS | 0.696 ± 0.068 |
| PYHLFLSFSLSR | 0.725 ± 0.011 |
| PYPPPPALPSSF | 0.667 ± 0.032 |
| PYRLPRSLLFFP | 0.6688 ± 0.0045 |
| PYSHFVFGLCEL | 0.75 ± 0.096 |
| PYTPPTSSRDRS | 0.661 ± 0.019 |
| QADAPPGDTNTL | 0.727 ± 0.041 |
| QCASPRLSLGSP | 0.703 ± 0.03 |
| QCCPPEQLSNCS | 0.681 ± 0.011 |
| QCGYGKLSGGSQ | 0.672 ± 0.034 |
| QCNYCVQNLSSR | 0.695 ± 0.019 |
| QDSTNTPHTCRS | 0.695 ± 0.06 |
| QEIRKEILLIKS | 0.6 ± 0.098 |
| QERRDQGRKGQD | 0.673 ± 0.011 |
| QESSDSRHATIR | 0.624 ± 0.044 |
| QFIGVGKVQRFG | 0.59 ± 0.014 |

| Sequence | protein stability index |
| --- | --- |
| QFLGVGCLRGKR | 0.692 ± 0.037 |
| QFNVLPGQVGLV | 0.635 ± 0.027 |
| QFTLLEFVRSMG | 0.613 ± 0.032 |
| QGGGDREVRVSE | 0.653 ± 0.058 |
| QGKRRREDGIGG | 0.711 ± 0.072 |
| QGQAEREAERRS | 0.6732 ± 0.0059 |
| QGWDGSRRRPGL | 0.706 ± 0.031 |
| QGYWVKAVCASH | 0.624 ± 0.023 |
| QIKGNNLNIDKG | 0.6721 ± 0.0031 |
| QIQRLGGGGHCG | 0.762 ± 0.1 |
| QISLPDASLPPS | 0.67 ± 0.079 |
| QIYHIANPKILN | 0.696 ± 0.055 |
| QKDLDGSLANST | 0.692 ± 0.025 |
| QKHAAFLKRSRE | 0.68 ± 0.024 |
| QKIIEDNQNTGR | 0.663 ± 0.016 |
| QKKKKNNKRQKQ | 0.588 ± 0.023 |
| QKKKVKETRNER | 0.672 ± 0.034 |
| QKKNSPIPTNKN | 0.695 ± 0.04 |
| QKKSGKNGIRPK | 0.701 ± 0.065 |
| QKNKKRQTTYES | 0.662 ± 0.0069 |
| QKNWWLETVLRG | 0.72 ± 0.023 |
| QMKDGKTQKWQE | 0.569 ± 0.048 |
| QNKKEKRHKTKT | 0.648 ± 0.02 |

From the supplement of paper PMC10724198
